From patent publication US20250145696A1 (BIOVERATIV USA, published 2025)

Target: T1, human C1s (human, UniProt P09871 16-688)
T1 sequence: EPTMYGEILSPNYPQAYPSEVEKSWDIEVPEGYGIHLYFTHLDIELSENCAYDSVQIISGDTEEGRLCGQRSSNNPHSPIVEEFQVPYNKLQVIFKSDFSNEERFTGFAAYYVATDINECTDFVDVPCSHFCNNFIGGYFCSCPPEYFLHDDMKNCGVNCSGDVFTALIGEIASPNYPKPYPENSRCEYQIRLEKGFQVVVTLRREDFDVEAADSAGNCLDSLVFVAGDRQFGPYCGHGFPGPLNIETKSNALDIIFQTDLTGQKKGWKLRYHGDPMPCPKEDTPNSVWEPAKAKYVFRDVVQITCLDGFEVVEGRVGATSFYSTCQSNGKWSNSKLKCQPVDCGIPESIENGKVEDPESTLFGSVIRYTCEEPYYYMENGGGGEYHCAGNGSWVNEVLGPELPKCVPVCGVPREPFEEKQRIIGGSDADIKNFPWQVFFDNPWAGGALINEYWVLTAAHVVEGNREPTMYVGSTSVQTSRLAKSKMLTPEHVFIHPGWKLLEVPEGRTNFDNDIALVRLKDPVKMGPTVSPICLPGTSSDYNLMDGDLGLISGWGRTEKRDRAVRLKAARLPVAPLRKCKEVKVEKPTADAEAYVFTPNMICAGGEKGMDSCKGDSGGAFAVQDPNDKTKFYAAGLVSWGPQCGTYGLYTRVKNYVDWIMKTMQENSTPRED
Assay: cell-based or functional assay

B1: BIVV009 (antibody, human IgG4 S228P, kappa, V domains shown)
VH: EVQLVESGGGLVKPGGSLRLSCAASGFTFSNYAMSWVRQAPGKGLEWVATISSGGSHTYYLDSVKGRFTISRDNSKNTLYLQMNSLRAEDTALYYCARLFTGYAMDYWGQGTLVTVSS
VL: QIVLTQSPATLSLSPGERATMSCTASSSVSSSYLHWYQQKPGKAPKLWIYSTSNLASGVPSRFSGSGSGTDYTLTISSLQPEDFATYYCHQYYRLPPITFGQGTKLEIKR
Question: Which “IC50 (concentration associated to 50% of the maximum effect) on serum classical complement pathway (CP) activity, WIESLAB assay, inhibitory Emax model” value does the source give for B1 here?
Answer: Its value is 6.2 mg/L.
